Laboratory results taken from patent US20150353909.

Experiments:
HA3-SUMO-GST = HA3-SUMO-GST (UniProt P55852)
[1] = tested on: purified recombinant linear UB trimers
[2] = tested on: HA3-UBQ-GST [GST: P08515]
[3] = tested on: purified recombinant linear UB tetramers
[4] = target: K63-tetraubiquitin chains (UniProt P0CG48)
[5] = tested on: purified recombinant linear UB dimers
[6] = target: K48-tetraubiquitin chains (UniProt P0CG48)
HA3-RUB-GST = HA3-RUB-GST (UniProt Q9SHE7)

Measured: in vitro deubiquitylation activity

K63-tetraubiquitin chains, sequence (P0CG48 whole entry, looked up): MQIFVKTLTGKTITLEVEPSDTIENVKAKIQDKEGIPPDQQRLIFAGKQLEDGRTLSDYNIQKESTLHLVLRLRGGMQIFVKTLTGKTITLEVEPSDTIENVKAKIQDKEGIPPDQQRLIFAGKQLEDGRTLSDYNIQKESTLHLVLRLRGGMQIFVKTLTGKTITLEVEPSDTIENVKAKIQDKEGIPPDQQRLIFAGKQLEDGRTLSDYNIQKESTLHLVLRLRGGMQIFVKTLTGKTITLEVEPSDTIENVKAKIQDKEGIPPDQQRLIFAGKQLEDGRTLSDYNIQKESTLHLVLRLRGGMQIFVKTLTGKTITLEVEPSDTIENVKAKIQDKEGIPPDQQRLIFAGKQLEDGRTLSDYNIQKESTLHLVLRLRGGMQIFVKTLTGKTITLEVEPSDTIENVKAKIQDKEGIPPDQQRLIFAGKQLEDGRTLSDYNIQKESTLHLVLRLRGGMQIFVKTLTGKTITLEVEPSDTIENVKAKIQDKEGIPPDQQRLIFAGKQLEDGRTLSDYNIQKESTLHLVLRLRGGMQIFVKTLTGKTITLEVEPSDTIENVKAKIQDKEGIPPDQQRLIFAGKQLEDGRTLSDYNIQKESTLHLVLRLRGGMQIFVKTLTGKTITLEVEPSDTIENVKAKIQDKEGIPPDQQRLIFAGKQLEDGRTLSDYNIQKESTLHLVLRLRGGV
K48-tetraubiquitin chains, sequence (P0CG48 whole entry, looked up): as above
His-tagged OTU12, sequence (Q9SGA5 whole entry): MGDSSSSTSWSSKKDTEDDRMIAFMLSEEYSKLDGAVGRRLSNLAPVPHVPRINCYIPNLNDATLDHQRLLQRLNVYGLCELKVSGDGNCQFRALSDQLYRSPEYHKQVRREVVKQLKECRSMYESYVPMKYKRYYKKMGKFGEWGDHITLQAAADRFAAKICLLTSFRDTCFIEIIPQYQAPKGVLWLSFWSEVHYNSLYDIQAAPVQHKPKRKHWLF
His-tagged OTU11a, sequence (Q0V869 whole entry): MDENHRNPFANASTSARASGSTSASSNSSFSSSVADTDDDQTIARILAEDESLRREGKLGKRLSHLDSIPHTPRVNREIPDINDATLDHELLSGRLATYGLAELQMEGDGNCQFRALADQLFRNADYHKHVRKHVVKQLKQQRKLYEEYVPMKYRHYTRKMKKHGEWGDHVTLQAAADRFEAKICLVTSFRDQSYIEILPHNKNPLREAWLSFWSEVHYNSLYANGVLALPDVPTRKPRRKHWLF

His-tagged OTU11a
-: all assays above

OTU4d
-: all assays above

His-tagged OTLD1a
-: all assays above

His-tagged OTU5b
-: all assays above

His-tagged OTU12
-: all assays above
